Data on seven molecules can be found in publication PMC11148069 (2024).

The labels stand for the following.
T1: recombinant Xenopus Nup93 target (BLI) (Xenopus, UniProt Q7ZX96 1-820)
T1 chain: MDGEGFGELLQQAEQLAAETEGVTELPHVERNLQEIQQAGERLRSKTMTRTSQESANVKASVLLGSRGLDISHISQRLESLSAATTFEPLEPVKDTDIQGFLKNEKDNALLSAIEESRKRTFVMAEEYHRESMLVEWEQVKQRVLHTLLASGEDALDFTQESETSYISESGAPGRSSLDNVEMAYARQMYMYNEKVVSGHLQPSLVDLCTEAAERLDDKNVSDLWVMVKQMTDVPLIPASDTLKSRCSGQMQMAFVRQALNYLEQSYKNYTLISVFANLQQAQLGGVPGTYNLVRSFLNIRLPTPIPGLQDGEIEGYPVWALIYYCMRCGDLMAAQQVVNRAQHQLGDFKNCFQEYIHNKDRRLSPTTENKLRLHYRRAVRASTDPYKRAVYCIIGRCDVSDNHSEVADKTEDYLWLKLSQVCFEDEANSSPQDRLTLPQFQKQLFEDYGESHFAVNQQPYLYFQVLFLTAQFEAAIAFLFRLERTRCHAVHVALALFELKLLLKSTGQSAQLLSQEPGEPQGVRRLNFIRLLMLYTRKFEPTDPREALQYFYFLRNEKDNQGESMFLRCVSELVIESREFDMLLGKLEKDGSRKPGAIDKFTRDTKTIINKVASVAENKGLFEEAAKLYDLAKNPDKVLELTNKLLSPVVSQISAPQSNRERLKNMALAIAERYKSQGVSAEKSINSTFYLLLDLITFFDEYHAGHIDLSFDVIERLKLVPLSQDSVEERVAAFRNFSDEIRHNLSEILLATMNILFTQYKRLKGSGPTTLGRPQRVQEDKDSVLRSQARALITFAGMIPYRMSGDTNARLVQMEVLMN

T2: recombinant human Nup98 target (BLI) (human, UniProt P52948 1-880)
T2 chain: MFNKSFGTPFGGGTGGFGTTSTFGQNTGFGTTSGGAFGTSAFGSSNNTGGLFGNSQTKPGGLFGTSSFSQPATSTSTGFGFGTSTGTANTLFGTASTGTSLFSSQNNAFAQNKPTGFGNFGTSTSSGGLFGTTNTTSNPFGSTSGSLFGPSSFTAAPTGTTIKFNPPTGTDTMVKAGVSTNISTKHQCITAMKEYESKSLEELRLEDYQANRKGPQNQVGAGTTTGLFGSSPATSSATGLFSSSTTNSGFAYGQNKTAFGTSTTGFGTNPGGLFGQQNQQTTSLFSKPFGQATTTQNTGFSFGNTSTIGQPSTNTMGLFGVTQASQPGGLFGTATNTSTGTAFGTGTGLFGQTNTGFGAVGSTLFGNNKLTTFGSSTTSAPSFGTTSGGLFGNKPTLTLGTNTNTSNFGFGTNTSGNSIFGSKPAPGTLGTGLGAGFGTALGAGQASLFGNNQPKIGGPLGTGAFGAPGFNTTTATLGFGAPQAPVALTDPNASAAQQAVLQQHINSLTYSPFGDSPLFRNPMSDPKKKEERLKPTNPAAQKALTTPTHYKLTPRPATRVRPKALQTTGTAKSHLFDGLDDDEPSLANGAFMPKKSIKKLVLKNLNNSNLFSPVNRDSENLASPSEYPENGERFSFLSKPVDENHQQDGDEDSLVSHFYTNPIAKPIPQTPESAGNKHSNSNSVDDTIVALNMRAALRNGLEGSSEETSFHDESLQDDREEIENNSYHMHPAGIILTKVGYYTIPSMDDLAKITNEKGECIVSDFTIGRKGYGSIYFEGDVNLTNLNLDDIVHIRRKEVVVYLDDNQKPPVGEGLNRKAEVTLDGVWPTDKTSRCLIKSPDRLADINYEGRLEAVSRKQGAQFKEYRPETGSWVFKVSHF

T3: recombinant Xenopus Nup98 target (BLI) (Xenopus)
T3 chain: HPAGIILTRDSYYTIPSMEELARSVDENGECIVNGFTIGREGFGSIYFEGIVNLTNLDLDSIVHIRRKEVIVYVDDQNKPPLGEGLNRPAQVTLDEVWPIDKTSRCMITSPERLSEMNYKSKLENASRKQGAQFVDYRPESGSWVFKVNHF

T4: human Nup35, endogenous (human (endogenous in HeLa), UniProt Q8NFH5 1-326)
T4 chain: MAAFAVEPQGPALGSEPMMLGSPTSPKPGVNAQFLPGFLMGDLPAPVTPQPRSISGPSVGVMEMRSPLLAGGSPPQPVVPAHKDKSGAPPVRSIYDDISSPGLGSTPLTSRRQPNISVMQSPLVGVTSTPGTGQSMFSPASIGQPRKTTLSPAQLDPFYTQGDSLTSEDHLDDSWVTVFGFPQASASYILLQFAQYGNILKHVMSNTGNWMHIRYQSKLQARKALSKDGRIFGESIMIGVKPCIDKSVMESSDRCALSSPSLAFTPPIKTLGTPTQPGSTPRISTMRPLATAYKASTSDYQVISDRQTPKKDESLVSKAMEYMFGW

T5: Xenopus Nup35, endogenous (Xenopus (endogenous in egg extract))
T5 chain: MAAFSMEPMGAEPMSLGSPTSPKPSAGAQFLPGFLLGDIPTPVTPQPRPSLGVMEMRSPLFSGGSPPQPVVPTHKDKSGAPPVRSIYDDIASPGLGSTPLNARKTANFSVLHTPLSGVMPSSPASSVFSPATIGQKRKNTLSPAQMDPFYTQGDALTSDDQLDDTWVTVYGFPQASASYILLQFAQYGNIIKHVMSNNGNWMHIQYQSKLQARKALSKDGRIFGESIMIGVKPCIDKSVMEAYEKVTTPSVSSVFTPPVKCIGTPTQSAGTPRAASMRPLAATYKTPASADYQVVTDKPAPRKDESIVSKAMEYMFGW

B1: xNup93-Nb2t (VHH)
VHH: DVQLVESGGGLVQPGGSLRLSCVASGFTFSRVGMGWVRQAPGKGLEWVSDINASGGTGYADSVKGRFAISRDNAKNTLYLQMNRLKPEDTAVYYCAKMMDTAMIEAGIIKPAGQGTQVTVSS
B2: xhNup98-Nb3i (VHH)
VHH: QVQLVESGGGLVQAGGSLRLSCAASGRTFSTYAMGWFRQAPGKEREFVSACSWSGGITRYADSVKGRFTISRDNAKNTVYLQMNSLKPEDTAVYYCASAASSAAYSGAYYYTSYYDYWGQGTQVTVSS
B3: xhNup93-Nb4i, biotinylated for BLI (VHH)
VHH: QVQLVESGGGVVQTGDSLMLSCTVSGHTIDNWAMGWFRQTPRKQREFVAAIDKRGTGAIYGNSVKGRFTVSRDNAKNMVYLRMNSLKPEDTAVYFCAVDQLNAGLGDVSYDYDYWGQGTQVTVSS
modifications: Biotin-[PEG]3-maleimide on two ectopic cysteines
B4: xhNup35-Nb1t (VHH)
VHH: QVQLVESGGGLVQAGGSLRLSCVGTGNISSAYTMAWYRQAAGKEREVVAGILNGGSTHYADSVKGRFTISRDNAKNTVYLQMNSLQPEDTGVYCCHVVIESTRFVYDHYWGQGTRVTVSS
B5: xNup98-Nb1t (as added in the binding assay of Fig. 11C) (VHH)
VHH: QVQLVESGGGPVEAGGSLRLSCAASGRSFSNSVMAWFRQAPGKEREFLSVLNWSSGRTSIADSVKGRFTMSRDPAKITVYLQMNGLKPEDTAVYYCAASNRGSLYTLDNQNRYEDWGQGTQVTVSS
B6: recombinant human Nup93 target (BLI) (natural protein)
chain: MDTEGFGELLQQAEQLAAETEGISELPHVERNLQEIQQAGERLRSRTLTRTSQETADVKASVLLGSRGLDISHISQRLESLSAATTFEPLEPVKDTDIQGFLKNEKDNALLSAIEESRKRTFGMAEEYHRESMLVEWEQVKQRILHTLLASGEDALDFTQESEPSYISDVGPPGRSSLDNIEMAYARQIYIYNEKIVNGHLQPNLVDLCASVAELDDKSISDMWTMVKQMTDVLLTPATDALKNRSSVEVRMEFVRQALAYLEQSYKNYTLVTVFGNLHQAQLGGVPGTYQLVRSFLNIKLPAPLPGLQDGEVEGHPVWALIYYCMRCGDLLAASQVVNRAQHQLGEFKTWFQEYMNSKDRRLSPATENKLRLHYRRALRNNTDPYKRAVYCIIGRCDVTDNQSEVADKTEDYLWLKLNQVCFDDDGTSSPQDRLTLSQFQKQLLEDYGESHFTVNQQPFLYFQVLFLTAQFEAAVAFLFRMERLRCHAVHVALVLFELKLLLKSSGQSAQLLSHEPGDPPCLRRLNFVRLLMLYTRKFESTDPREALQYFYFLRDEKDSQGENMFLRCVSELVIESREFDMILGKLENDGSRKPGVIDKFTSDTKPIINKVASVAENKGLFEEAAKLYDLAKNADKVLELMNKLLSPVVPQISAPQSNKERLKNMALSIAERYRAQGISANKFVDSTFYLLLDLITFFDEYHSGHIDRAFDIIERLKLVPLNQESVEERVAAFRNFSDEIRHNLSEVLLATMNILFTQFKRLKGTSPSSSSRPQRVIEDRDSQLRSQARTLITFAGMIPYRTSGDTNARLVQMEVLMN
B7: xhNup98-Nb2i, biotinylated for BLI (VHH)
VHH: QVQLVESGGGLAKPGGSLRLSCVATGTFRSMEDVGWYRQAPGKDRELVAEITTLGKVTYADSVKGRFTISRDDAKNAVYLQMSDLKSEDTAVYYCNIEADQTKGIGYVVYPYWGQGTRVTVSS
modifications: Biotin-[PEG]3-maleimide on two ectopic cysteines

Common to all, as to assay: BLI
Background: Biolayer interferometry detects binding as a change in optical thickness at a sensor tip.

Test [1] addresses T1, recombinant Xenopus Nup93 target (BLI).
For test [2], the target named is T2, recombinant human Nup98 target (BLI).
The target of test [3] is T3, recombinant Xenopus Nup98 target (BLI).
Test [4] has as its target B6.
Another test concerns the target T4, human Nup35, endogenous.
The target in test [5] is T5, Xenopus Nup35, endogenous.
A further test has as its target xhNup93-Nb3t.

One may read the Kd as a measure of binding affinity in units of concentration. Regarding B1, in test [1], the Kd is 4 nM.

Take B2: the Kd in test [2] and in test [3] was < 0.01 nM in each case.

Consider B3, for which the Kd in test [4] was 3 nM; in test [1], < 0.01 nM.

B4: the Kd with human Nup35, endogenous worked out at 0.8 nM; in test [5] it was 0.5 nM.

On to B5, for which the Kd was > 100 nM in test [2] and 1.7 nM in test [3].

On to B6, for which, in the test with xhNup93-Nb3t, the affinity, expressed as Kd, was 1 nM.

On to B7, for which the Kd in test [2] is 0.02 nM; in test [3], < 0.01 nM.
